# Reference: US20230121197A1, “ANTIBODIES SPECIFICALLY BINDING THE CARBOXYMETHYLATED CATALYTIC SUBUNIT OF PROTEIN PHOSPHATASE 2A” (Medizinische Universität Wien, priority 2020, published 2023)
# T1: PP2Ac C-terminal peptide meL309, ac-HVTRRTPDYFL-CH3 (α-carboxymethylated) (human, SMILES …)
# T1 construct: also called Y307-meL309; mePP2Ac
# T1 peptide: Ac-HVTRRTPDYFL-OMe
# B1: 7C10-C5: α-carboxymethylation specific mouse monoclonal IgG1 antibody from single clone hybridoma 7C10-C5 (DSM ACC3350) (antibody)
# heavy: MYRMQLLSCIALSLALVTNSDVQLQESGPGLVKPSQSLSLTCSVTGYSITSGYYWNWIRQFPGNKLEWMGYISYDGSNNYNPSLKNRISITRDTSKNQFFLKLNSVTTEDTATYYCAGRFAYWGQGTLVTVSAAKTTAPSVYPLAPVCGDTTGSSVTLGCLVKGYFPEPVTLTWNSGSLSSGVHTFPAVLQSDLYTLSSSVTVTSSTWPSQSITCNVAHPASSTKVDKKIEPRGPTIKPCPPCKCPAPNLLGGPSVFIFPPKIKDVLMISLSPIVTCVVVDVSEDDPDVQISWFVNNVEVHTAQTQTHREDYNSTLRVVSALPIQHQDWMSGKEFKCKVNNKDLPAPIERTISKPKGSVRAPQVYVLPPPEEEMTKKQVTLTCMVTDFMPEDIYVEWTNNGKTELNYKNTEPVLDSDGSYFMYSKLRVEKKNWVERNSYSCSVVHEGLHNHHTTKSFSRTPGK
# light: MDMRVPAQLLGLLLLWLSGARCDVLMTQTPLSLPVSLGDQASISCRSSQSIVHSNGNTYLEWYLQKPGQSPKLLIYKVSNRFSGVPDRFSGSGSGTDFTLKINRVEAEDLGVYYCFQGSHVPWTFGGGTKLEIKADAAPTVSIFPPSSEQLTSGGASVVCFLNNFYPKDINVKWKIDGSERQNGVLNSWTDQDSKDSTYSMSSTLTLTKDEYERHNSYTCEATHKTSTSPIVKSFNRNEC
# modifications: Amino acid sequence of the recombinant 7C10-C5 heavy chain; Amino acid sequence of the recombinant 7C10-C5 light chain
# B2: 7C10-C5 monoclonal antibody (antibody, V domains shown)
# VH: DVQLQESGPGLVKPSQSLSLTCSVTGYSITSGYYWNWIRQFPGNKLEWMGYISYDGSNNYNPSLKNRISITRDTSKNQFFLKLNSVTTEDTATYYCAGRFAYWGQGTLVTVSA
# VL: DVLMTQTPLSLPVSLGDQASISCRSSQSIVHSNGNTYLEWYLQKPGQSPKLLIYKVSNRFSGVPDRFSGSGSGTDFTLKINRVEAEDLGVYYCFQGSHVPWTFGGGTKLEIK
# notes: Used as hybridoma culture supernatant (ELISA, Western blot, IHC) or at 50 µg/mL (SPR); also called 7C10 X63; clone 7C10-C5
# What was measured:
# PP2Ac = target: T2, PP2Ac (Homo sapiens, UniProt P67775); assay: Western blot of human cell lysates (HAP1, HEK293; NaOH treatment, Lcmt-1-KO); type: binding
# T2 construct: the carboxy-terminal methyl group was chemically removed from cellular PP2Ac; endogenous in cells; host or cells: HAP1 wild type, HAP1 Lcmt-1-KO, HEK293Trex / HEK293T
# Procedure: NIH3T3 mouse fibroblasts and human embryonic kidney cells (HEK293Trex) were grown in DMEM+10% FCS+2 mM L-glutamine (Sigma, G2150)+100 units/ml Penicillin/0.1 mg/ml Streptomycin at 37° C. in a 7.5% CO2 atmosphere. HAP1 wild type and HAP1 Lcmt-1-KO cells (Leucine carboxyl methyltransferase 1 deleted by CRISPR/Cas9; Horizon Discovery, #C631 and #HZGHC004373c001) were grown in Iscove's Modified Dulbecco's Medium (IMDM, Thermo Fischer Scientific, Life Technologies #12440053) supplemented with 10% (v/v) Fetal Calf Serum (FCS) (Sigma #F7524, lot 104M3333), GlutaMAX™ (Thermo Fischer Scientific, Life Technologies #35050-38, lot 1895829), and Penicillin-Streptomycin solution (Sigma, #P4333, lot 125M4781V) in a 5% CO2 atmosphere. Of note, HAP1 is a near-haploid human cell line that was derived from the chronic myelogenous leukemia (CML) cell line KBM-7 (Carette (2011), Nature 477(7364):340-3). For cell lysis, exponentially growing cells were washed once with ice-cold PBS, once with ice-cold IP-Wash buffer (20 mmol/l Tris pH 8.0, 135 mmol/l NaCl, 10% glycerol) and lysed on the petri-dish in ice-cold IP-Lyse buffer (18 mmol/l Tris pH 8.0, 122 mmol/l NaCl, 9% glycerol, 1% w/v NP-40) for 20 min at 4° C. rocking. Lysed cells were transferred to Eppendorf 1.5 ml tubes and centrifuged for 15 min at 14,000 rpm at 4° C. in a Beckman & Coulter Microfuge 18 centrifuge. The protein concentration was determined with the Protein Assay Dye Reagent (Biorad, 500-0006) and measurement of absorbance at 595 nm in a Hitachi U-2000 spectrophotometer. […]
# To test these antibodies in the western blot analysis with methylated and non-methylated full-length PP2Ac the methyl group was chemically removed from cellular PP2Ac by treating lysates of the human cell line, HAP1, with NaOH, as described in Example 2. […] In agreement with the results of the NaOH experiments, […] of PP2Ac were detected in HAP1 cells that lack the PP2A methyltransferase LCMT-1 indicating the preference of these antibodies for non-methylated PP2Ac (FIG. 22). […]
# [1] = target: PP2Ac C-terminal peptide pT304-meL309, ac-HVTRRpTPDYFL-CH3 (human); assay: ELISA, peptide coated at 2 µg/ml, supernatant 1:50
# [2] = target: T1, PP2Ac C-terminal peptide meL309, …; assay: SPR, ratio of steady-state KD values
# From the text: (A) Saturation curve of the titration of the α-carboxymethylated PP2Ac C-terminal peptide (SEQ ID NO:18) on 7C10-C5 or 2A10 immobilized on a Series S Sensor Chip CM5 (GE Healthcare, 10296958). […] (B) Saturation curve of the titration of the α-carboxymethylated PP4c C-terminal peptide (SEQ ID NO:20) on 7C10-C5 or 2A10 immobilized on a Series S Sensor Chip CM5 (GE Healthcare, 10296958). […] The KD values were obtained using the fitting tool of the BiacoreT200 Evaluation Software (version 3.1).
# The differential affinity of anti-carboxymethylated PP2Ac antibodies, 7C10-C5 and 2A10, to carboxymethylated PP2A catalytic subunit versus noncarboxymethylated PP2A catalytic subunit was determined by surface plasmon resonance (SPR) on a Biacore T200 (GE Healthcare) at the Core Facility Biomolecular & Cellular Analysis (University of Natural Resources and Life Sciences Vienna BOKU). The affinity of 7C10-C5 for carboxymethylated and noncarboxymethylated catalytic subunit of PP4 (PP4c), a PP2A-related phosphatase, was also determined.
# T2 sequence (P67775 whole entry): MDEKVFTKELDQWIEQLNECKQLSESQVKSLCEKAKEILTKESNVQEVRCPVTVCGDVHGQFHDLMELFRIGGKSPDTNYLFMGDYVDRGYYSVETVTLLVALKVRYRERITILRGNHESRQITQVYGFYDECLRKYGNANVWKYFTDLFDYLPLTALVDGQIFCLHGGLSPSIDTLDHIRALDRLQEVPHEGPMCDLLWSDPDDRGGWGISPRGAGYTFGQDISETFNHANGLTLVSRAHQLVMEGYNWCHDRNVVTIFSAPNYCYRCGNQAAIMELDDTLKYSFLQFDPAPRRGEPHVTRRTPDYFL
Molecule,detection of PP2Ac in HAP1 cells that lack LCMT-1 (Lcmt-1-KO) (PP2Ac),"detection of PP2Ac in untreated versus NaOH treated cell lysates (PP2Ac; HAP1, HEK293)",fold higher ELISA signal intensity than with the carboxymethylated peptide without phosphorylation (meL309) [1] [fold],fold stronger binding than to carboxymethylated PP4c (ratio of KD) [2] [fold]
B1,no carboxymethylated PP2Ac specific signals were detected,only detected methylated PP2Ac in the untreated cell lysates but not in the NaOH treated lysates,–,–
B2,–,–,1.6,12
